This test concerns the target megalin (human (endogenous in primary PTECs)) (UniProt P98164).
UniProt P98164, sequence (P98164 26-4655): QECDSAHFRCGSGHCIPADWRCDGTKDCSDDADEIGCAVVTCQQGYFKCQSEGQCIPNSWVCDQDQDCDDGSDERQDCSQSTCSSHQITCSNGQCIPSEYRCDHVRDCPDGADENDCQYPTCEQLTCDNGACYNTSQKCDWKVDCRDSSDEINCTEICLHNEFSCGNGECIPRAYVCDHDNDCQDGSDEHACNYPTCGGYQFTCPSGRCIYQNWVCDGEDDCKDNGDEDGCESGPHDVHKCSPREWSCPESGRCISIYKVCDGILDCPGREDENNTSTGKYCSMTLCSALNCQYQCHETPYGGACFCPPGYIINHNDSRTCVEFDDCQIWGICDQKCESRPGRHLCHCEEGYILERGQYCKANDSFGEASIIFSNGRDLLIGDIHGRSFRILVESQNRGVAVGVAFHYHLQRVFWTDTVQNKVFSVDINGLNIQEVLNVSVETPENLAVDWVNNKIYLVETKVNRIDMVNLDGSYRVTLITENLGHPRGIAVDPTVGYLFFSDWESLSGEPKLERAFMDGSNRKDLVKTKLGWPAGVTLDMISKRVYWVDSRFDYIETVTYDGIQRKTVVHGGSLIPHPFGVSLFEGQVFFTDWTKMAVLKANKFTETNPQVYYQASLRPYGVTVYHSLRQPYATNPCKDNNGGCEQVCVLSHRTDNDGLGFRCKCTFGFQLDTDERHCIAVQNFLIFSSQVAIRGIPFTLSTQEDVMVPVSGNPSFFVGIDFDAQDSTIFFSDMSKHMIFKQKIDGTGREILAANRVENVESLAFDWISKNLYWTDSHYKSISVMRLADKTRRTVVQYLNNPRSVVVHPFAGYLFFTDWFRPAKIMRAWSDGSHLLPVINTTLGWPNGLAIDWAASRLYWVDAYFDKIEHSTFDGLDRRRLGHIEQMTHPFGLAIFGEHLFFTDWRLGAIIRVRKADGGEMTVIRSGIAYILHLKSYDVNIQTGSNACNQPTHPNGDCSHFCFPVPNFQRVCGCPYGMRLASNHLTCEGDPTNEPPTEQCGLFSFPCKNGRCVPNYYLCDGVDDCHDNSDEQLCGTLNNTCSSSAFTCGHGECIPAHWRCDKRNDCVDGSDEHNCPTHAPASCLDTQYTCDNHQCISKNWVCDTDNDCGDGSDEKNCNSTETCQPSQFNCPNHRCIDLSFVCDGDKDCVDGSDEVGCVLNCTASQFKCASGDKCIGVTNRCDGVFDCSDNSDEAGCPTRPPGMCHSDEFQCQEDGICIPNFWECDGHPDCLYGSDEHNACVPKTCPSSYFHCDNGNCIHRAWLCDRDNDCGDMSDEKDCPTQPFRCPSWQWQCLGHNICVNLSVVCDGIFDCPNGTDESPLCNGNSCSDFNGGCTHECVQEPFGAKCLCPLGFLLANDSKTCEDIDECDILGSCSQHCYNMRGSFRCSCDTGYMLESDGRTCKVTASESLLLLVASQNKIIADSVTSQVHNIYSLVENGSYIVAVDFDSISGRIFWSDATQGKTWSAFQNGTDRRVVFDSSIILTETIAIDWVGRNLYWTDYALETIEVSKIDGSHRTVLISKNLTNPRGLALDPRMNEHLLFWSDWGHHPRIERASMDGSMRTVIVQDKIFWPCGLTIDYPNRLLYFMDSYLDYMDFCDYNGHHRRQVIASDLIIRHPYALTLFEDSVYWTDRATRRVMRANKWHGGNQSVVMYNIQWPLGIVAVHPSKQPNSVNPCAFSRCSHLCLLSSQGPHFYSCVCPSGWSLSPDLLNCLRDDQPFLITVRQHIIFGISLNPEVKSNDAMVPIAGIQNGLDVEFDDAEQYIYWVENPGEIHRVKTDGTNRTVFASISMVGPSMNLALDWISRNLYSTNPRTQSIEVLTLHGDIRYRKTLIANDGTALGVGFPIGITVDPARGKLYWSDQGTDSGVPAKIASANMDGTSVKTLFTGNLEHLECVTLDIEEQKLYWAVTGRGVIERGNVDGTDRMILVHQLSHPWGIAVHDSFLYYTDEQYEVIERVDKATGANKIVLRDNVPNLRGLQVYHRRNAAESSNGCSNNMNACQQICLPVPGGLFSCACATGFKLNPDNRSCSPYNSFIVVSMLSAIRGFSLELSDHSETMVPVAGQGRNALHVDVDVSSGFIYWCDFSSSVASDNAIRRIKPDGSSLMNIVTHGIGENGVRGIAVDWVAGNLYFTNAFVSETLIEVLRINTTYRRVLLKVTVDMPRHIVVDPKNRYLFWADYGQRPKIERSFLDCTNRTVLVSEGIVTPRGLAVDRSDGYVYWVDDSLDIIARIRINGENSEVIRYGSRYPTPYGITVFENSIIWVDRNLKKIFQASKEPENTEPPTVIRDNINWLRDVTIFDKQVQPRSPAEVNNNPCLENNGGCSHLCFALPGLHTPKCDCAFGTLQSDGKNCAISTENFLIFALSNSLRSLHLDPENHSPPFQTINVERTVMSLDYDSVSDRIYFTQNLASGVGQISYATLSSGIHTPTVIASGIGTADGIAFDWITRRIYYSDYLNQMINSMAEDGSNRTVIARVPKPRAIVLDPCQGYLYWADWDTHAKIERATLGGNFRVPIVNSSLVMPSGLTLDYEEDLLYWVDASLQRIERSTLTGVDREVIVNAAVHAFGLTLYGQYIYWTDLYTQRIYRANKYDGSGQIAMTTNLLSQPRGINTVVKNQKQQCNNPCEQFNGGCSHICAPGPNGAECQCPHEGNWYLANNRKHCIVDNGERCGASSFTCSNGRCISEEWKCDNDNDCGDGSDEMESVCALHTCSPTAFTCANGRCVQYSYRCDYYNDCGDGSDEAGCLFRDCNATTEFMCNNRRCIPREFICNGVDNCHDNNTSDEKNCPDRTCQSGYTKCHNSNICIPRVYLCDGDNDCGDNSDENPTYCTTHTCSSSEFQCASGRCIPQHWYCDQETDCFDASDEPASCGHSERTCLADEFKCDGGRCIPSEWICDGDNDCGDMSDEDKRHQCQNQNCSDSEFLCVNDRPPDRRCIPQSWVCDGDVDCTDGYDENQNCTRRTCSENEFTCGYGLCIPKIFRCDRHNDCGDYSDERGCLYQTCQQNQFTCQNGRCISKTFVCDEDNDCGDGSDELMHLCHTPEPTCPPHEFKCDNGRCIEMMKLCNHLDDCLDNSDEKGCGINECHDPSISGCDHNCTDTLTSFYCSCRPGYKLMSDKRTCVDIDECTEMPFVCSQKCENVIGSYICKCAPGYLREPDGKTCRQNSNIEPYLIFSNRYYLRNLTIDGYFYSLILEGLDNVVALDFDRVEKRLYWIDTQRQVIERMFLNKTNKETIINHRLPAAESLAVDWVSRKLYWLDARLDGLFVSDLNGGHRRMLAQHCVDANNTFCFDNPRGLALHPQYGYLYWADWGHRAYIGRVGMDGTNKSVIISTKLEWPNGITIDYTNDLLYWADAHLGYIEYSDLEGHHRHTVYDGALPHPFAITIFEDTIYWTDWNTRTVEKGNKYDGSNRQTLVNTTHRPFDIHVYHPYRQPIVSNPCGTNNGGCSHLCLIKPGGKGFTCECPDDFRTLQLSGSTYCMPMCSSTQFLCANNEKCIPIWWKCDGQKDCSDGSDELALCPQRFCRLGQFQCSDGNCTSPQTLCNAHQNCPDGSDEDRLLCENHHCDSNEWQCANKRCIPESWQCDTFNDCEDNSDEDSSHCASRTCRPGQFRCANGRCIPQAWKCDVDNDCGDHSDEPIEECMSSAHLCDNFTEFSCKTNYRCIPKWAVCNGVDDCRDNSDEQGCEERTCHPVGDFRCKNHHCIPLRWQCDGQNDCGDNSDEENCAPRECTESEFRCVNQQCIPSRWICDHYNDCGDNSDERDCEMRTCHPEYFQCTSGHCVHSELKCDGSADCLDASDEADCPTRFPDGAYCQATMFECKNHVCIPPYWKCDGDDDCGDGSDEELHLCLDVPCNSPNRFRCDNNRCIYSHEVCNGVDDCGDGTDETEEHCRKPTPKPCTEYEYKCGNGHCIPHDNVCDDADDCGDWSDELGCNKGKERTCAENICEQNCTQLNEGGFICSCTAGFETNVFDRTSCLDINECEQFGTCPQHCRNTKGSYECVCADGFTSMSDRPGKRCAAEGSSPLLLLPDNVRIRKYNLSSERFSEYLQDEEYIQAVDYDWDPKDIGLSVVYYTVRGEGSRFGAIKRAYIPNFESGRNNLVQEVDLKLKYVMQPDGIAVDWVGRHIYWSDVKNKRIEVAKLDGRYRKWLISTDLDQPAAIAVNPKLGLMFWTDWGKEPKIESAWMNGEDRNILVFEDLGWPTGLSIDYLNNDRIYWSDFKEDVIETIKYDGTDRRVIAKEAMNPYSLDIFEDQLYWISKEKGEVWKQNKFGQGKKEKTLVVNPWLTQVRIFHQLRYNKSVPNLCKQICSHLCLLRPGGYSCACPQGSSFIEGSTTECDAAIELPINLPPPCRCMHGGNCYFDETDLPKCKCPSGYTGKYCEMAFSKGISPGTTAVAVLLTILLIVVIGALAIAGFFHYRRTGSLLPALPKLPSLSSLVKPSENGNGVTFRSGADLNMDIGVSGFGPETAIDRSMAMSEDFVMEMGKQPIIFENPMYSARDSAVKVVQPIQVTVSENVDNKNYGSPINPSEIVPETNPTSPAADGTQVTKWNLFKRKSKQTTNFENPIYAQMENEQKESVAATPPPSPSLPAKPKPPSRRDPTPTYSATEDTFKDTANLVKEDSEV

With “Mixed type human vitamin D binding protein (from UniProt P02774 17-474) (natural protein)”, the intrinsic clearance of 25OHD3 loss (CLint,25OHD3) from the perfusion medium of the PT-MPS with 3 uM DBP; fold-change with 1 uM RAP (megalin inhibitor) against no RAP, geometric mean of 5 donors (fold reduction) was found to be 2.4.

For the origin of these results see paper PMC6896899.
